Source: patent publication US20180118814A1 (IGM BIOSCIENCES, published 2018)

T1: HBsAg (Prospec HBS-872) (hepatitis B virus)
T1 chain: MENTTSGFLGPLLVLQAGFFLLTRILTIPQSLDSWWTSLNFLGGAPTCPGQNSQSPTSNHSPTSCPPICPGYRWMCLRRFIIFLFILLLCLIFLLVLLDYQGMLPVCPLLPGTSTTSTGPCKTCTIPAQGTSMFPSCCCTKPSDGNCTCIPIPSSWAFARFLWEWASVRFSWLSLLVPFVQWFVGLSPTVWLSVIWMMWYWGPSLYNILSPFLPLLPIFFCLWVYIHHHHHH

B1: HBV23G (antibody, human IgG1, lambda, V domains shown)
VH: EVQVLESGGGLVQPGGSLRLSCAASGFRFSSYAMSWVRQAPGKGLEWVSGISGTGENTYYADSVKGRFTISRDNSKNTLYVQMNSLRAEDTAVYYCAKDAILGSGHPWYFHVWGRGTLVTVSS
VL: SYVLTQPPSVSVAPGQTARMTCGGNNIGSESVHWFQQKPGQAPVLVVYDDSDRPSGIPERFSGSNSGNTATLTISRVEAGDEADYYCQVWDSSSDHAVFGGGTQLTVLG
notes: also called IgG counterpart (HBV23G); human IgG antibody provided in Cerino et al. (2015)
B2: HBV23MJ (antibody)
heavy: EVQVLESGGGLVQPGGSLRLSCAASGFRFSSYAMSWVRQAPGKGLEWVSGISGTGENTYYADSVKGRFTISRDNSKNTLYVQMNSLRAEDTAVYYCAKDAILGSGHPWYFHVWGRGTLVTVSSGSASAPTLFPLVSCENSPSDTSSVAVGCLAQDFLPDSITFSWKYKNNSDISSTRGFPSVLRGGKYAATSQVLLPSKDVMQGTDEHVVCKVQHPNGNKEKNVPLPVIAELPPKVSVFVPPRDGFFGNPRKSKLICQATGFSPRQIQVSWLREGKQVGSGVTTDQVQAEAKESGPTTYKVTSTLTIKESDWLSQSMFTCRVDHRGLTFQQNASSMCVPDQDTAIRVFAIPPSFASIFLTKSTKLTCLVTDLTTYDSVTISWTRQNGEAVKTHTNISESHPNATFSAVGEASICEDDWNSGERFTCTVTHTDLPSPLKQTISRPKGVALHRPDVYLLPPAREQLNLRESATITCLVTGFSPADVFVQWMQRGQPLSPEKYVTSAPMPEPQAPGRYFAHSILTVSEEEWNTGETYTCVVAHEALPNRVTERTVDKSTGKPTLYNVSLVMSDTAGTCY
light: SYVLTQPPSVSVAPGQTARMTCGGNNIGSESVHWFQQKPGQAPVLVVYDDSDRPSGIPERFSGSNSGNTATLTISRVEAGDEADYYCQVWDSSSDHAVFGGGTQLTVLGQPKAAPSVTLFPPSSEELQANKATLVCLISDFYPGAVTVAWKADSSPVKAGVETTTPSKQSNNKYAASSYLSLTPEQWKSHRSYSCQVTHEGSTVEKTVAPTECS
chain: not shown
notes: Human IgM with human J-chain; also called HBV23 anti-HBsAg IgM+human J-chain

Target: T1, HBsAg (Prospec HBS-872)
Test: ELISA, plate coated with HBsAg (Prospec HBS-872), anti-human lambda-HRP detection, weight concentrations

Binder	EC50 [µg/mL]
B1	0.03
B2	0.064
